The numbers were not newly measured in article PMC6958331, which cites them from elsewhere.

pKd: −log10 of the molar value.

In this data set the target is hemopexin (Homo sapiens) (UniProt P02790).
UniProt P02790, sequence (P02790 24-462): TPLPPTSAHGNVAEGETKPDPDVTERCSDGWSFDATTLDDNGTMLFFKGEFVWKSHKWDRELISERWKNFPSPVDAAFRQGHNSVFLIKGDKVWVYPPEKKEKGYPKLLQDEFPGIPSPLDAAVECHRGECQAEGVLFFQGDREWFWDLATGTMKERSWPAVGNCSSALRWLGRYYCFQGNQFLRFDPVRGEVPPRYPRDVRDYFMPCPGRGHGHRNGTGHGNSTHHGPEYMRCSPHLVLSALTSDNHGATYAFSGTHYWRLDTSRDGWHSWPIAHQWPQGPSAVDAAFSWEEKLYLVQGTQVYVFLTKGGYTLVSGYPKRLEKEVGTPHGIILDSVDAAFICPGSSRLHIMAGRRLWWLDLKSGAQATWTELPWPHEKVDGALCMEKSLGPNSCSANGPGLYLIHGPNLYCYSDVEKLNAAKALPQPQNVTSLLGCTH

Turning to LRP1/CD91 (from UniProt Q07954), the negative logarithm of the Kd (pKd) is 8.40.

In general, pKd refers to −log10 of the Kd, conventionally taken in molar units.
